Assay results published in the MegaScale stability set (Tsuboyama et al. 2023).

B1: EEHEE_rd3_0130 (parent)
chain: TKIIVNGKTFTAPTEEEAQKIAEKLAKKAGLTVHKKNGTFELK

Variants of: B1
Assay: folding stability dG (cDNA display proteolysis); higher = more stable
Settings: PBS, room temperature

Folding stability dG [kcal/mol]: each site, then its substitutions
A12: N -0.407 | M 1.02 | E -0.465 | Y 1.63 | S 0.182 | W 0.836 | V 1.34 | G 0.091 | R 0.461 | D -0.138 | Q -0.091 | L 1.19 | F 1.81 | T 0.083 | K -0.014 | H 0.346 | I 1.26
F10: M 0.05 | Y 0.851 | L 0.392 | V -0.708 | W 0.82 | I 0.454
E15: V 0.847 | F 1 | C 1.07 | T 0.439 | L 0.994 | M 0.994 | P 0.736 | G 0.188 | A 0.725 | R 0.366 | D 0.325 | Q 0.576 | N 0.31 | K 0.359 | W 0.965 | S 0.561 | Y 1.42 | H 0.545 | I 0.689
T11: R 0.493 | E 0.261 | A 0.154 | Q 0.319 | N 0.328 | S 0.624 | I 1.03 | F 1.38 | Y 1.42 | W 1.68 | G -0.004 | D -0.3 | M 0.947 | V 0.762 | L 0.81 | C 1.63 | H 0.697 | K 0.248
Q19: Y 1.03 | V 0.457 | I 0.665 | T 0.379 | F 0.959 | N 0.383 | W 1.12 | H 0.606 | C 1.25 | S 0.739 | R 1.04 | G 0.357 | A 0.824 | P -0.468 | D -0.048 | K 0.789 | M 0.872 | E 0.914 | L 0.972
T9: A 0.394 | E 0.17 | P -0.619 | I 1.01 | L 0.562 | H 0.114 | M 0.652 | G -0.452 | Y 0.633 | Q 0.38 | R -0.066 | N -0.378 | K 0.007 | W 0.968 | S 0.461 | V 1.12 | C 1.66 | F 0.699
E17: I 1.33 | W 0.923 | T 0.526 | A 0.997 | V 0.922 | G 0.263 | M 1.19 | F 0.623 | K 0.72 | C 1.46 | Y 0.614 | S 0.635 | H 0.567 | L 1.25 | P -0.793 | D 0.564 | R 0.677 | Q 0.916 | N 0.064
K27: A 0.812 | D 0.266 | C 1.03 | E 0.532
I21: Y 0.645 | E -0.19 | A -0.095 | Q -0.043 | H -0.132 | L 0.99 | W 1.3 | D -0.719 | P -0.76 | N -0.725 | S -0.174 | V 0.46 | C 1.51 | M 0.647 | F 1.01 | R 0.152 | T -0.08 | K 0.005
A26: R -0.166 | D -0.815 | I -0.198 | E -0.437 | Y -0.009 | C 0.45 | N -0.556 | M -0.151 | S 0.1 | H -0.447 | T -0.552 | F 0.197 | L 0.094 | W -0.138 | G 0.163 | V -0.292 | Q -0.508 | K -0.188
K8: G -0.232 | Y 1.33 | W 1.53 | V 0.864 | M 0.926 | E 0.053 | F 1.25 | L 0.895 | Q 0.67 | N 0.238 | I 0.962
